Measurements taken from patent US12397037B2, “Methods and compositions for immunomodulation” (CHILDREN'S MEDICAL CENTER CORPORATION, priority 2014, dated 2025).

Assays:
Type in all cases: cell-based, human
[1] = tested on: PI-3K; test: PI3-Kinase Activity ELISA
Procedure: FIG. 28A depicts U87MG cells untreated (control) or following treatment with SEMA3F (640 ng/ml) for 30 minutes. Cell lysates were evaluated by phosphoprotein kinase antibody array. FIG. 28B depicts results of the array validated by Western blot analysis. FIG. 28C depicts U87MG cells treated with SEMA3F (640 ng/ml) as a time course up to 60 minutes and were analyzed by Western blot. FIGS. 28B-28C are representative of 3 independent experiments. FIG. 28D depicts U87MG, Jurkat and HUVEC cells treated with SEMA3F (200, 600, 1800 ng/ml, bars from left to right) for 15 minutes (grey bars) or 30 minutes (black bars); as a positive control, HUVEC were treated with VEGF-A (25 ng/ml) for 15 and 30 minutes. In addition, HUVEC were pre-treated with SEMA3F (1800 ng/ml) or PBS as a control for 30 minutes and subsequently VEGF-A (25 ng/ml) was added to the culture for 15 and 30 minutes. PI-3K activity was analyzed by ELISA according to the manufacturer's instructions. Data represent the mean±SD of 3 experiments.
SEMA3F inhibits Akt, mTOR, and S6K phosphorylation. To determine the effect of SEMA3F on intracellular signaling responses, levels of phosphokinases in the NRP2-expressing human glioblastoma cell line U87MG were profiled.
The VEGF-A (DVE00) ELISA kit was obtained from R&D Systems (Minneapolis, MN). […]

[2] = tested on: mTORC1 and mTORC2; test: Immunoprecipitation of mTOR with raptor and rictor in U87MG cells; details: SEMA3F 640 ng/ml, 30 minutes
Procedure: FIG. 29A depicts U87MG cells treated with SEMA3F (640 ng/ml) for 30 minutes and subjected to immunoprecipitation and Western blot analysis with anti-mTOR, -raptor and -rictor as illustrated. FIG. 29B depicts U87MG cells treated with rapamycin (10 nM) or Torin 1 (10 nM) for 30 minutes, prior to SEMA3F (640 ng/ml) treatment for 60 minutes; lysates were analyzed by Western blot. FIG. 29C depicts bar graphs representing densitometric analysis of the illustrated blot showing the fold change in intensity (mean±SD) relative to the untreated control (*, p <0.01; **, p<0.001 vs. untreated control). FIG. 29D depicts U87MG cells transiently transfected with a pcDNA3.1 empty vector or with constitutively active Akt (2DAkt). Cells were treated with SEMA3F (640 ng/ml) and lysates were analyzed by Western blot. All data are representative of 3 independent experiments.
FIGS. 35A-35B depict analysis of the effect of SEMA3F on mTORC2 activity. […] depicts a Western blot. U87MG cells were transiently transfected with a pcDNA3.1 empty vector or with constitutively active Akt (2DAkt). Cells were treated with SEMA3F (640 ng/ml) and lysates were analyzed by Western blot. FIG. 35B depicts a Western blot. U87MG cells were transiently transfected with a pcDNA3.1 empty vector or with 2DAkt. […]

[3] = tested on: HUVEC; test: Western blot of pAkt in HUVEC after PTEN siRNA knockdown; details: PTEN siRNA 20 nM, SEMA3F 1800 ng/ml
Procedure: FIG. 36A depicts a western blot. HUVEC were treated with SEMA3F (1800 ng/ml) for 30 minutes and were subjected to immunoprecipitation and Western blot analyses with anti-NRP2 and -PTEN as illustrated. FIG. 36B depicts a western blot. HUVEC were transfected with control-, or Plexin A1-specific siRNAs (20 nM), prior to SEMA3F treatment (1800 ng/ml); lysates were subjected to immunoprecipitation and Western blot analyses with anti-NRP2 and anti-PTEN as illustrated. FIG. 36C depicts a western blot. HUVEC were transfected with control-, or PTEN-specific siRNAs (20 nM), prior to SEMA3F treatment (1800 ng/ml); lysates were analyzed by Western blot. FIG. 36D depicts a western blot. U87MG cells were transfected with control or GIPC1-specific siRNA (20 nM). After 48 hours, cells were treated with SEMA3F (200, 600, 1800 ng/ml, from left to right) for 30 minutes, and were analyzed by Western blot. FIG. 36E depicts a western blot. U87MG cells were treated with U0126 (10 μM) for 30 minutes prior to combination with 30 minutes and 60 minutes of SEMA3F (640 ng/ml). Akt and MAPK signaling was analyzed by Western blot. All data presented are representative of 3 independent experiments.
It is thus likely that SEMA3F inactivates mTORC2 via upstream inhibition of PI-3K. […]

B1: SEMA3F: Human recombinant full-length His-Myc-tagged SEMA3F, secreted by transfected 293T cells and purified; class 3 semaphorin, NRP-2 ligand (protein, listed as Homo sapiens)
chain: MLVAGLLLWASLLTGAWPSFPTQDHLPATPRVRLSFKELKATGTAHFFNFLLNTTDYRILLKDEDHDRMYVGSKDYVLSLDLHDINREPLIIHWAASPQRIEECVLSGKDVNGECGNFVRLIQPWNRTHLYVCGTGAYNPMCTYVNRGRRAQATPWTQTQAVRGRGSRATDGALRPMPTAPRQDYIFYLEPERLESGKGKCPYDPKLDTASALINEELYAGVYIDFMGTDAAIFRTLGKQTAMRTDQYNSRWLNDPSFIHAELIPDSAERNDDKLYFFFRERSAEAPQSPAVYARIGRICLNDDGGHCCLVNKWSTFLKARLVCSVPGEDGIETHFDELQDVFVQQTQDVRNPVIYAVFTSSGSVFRGSAVCVYSMADIRMVFNGPFAHKEGPNYQWMPFSGKMPYPRPGTCPGGTFTPSMKSTKDYPDEVINFMRSHPLMYQAVYPLQRRPLVVRTGAPYRLTTIAVDQVDAADGRYEVLFLGTDRGTVQKVIVLPKDDQELEELMLEEVEVFKDPAPVKTMTISSKRQQLYVASAVGVTHLSLHRCQAYGAACADCCLARDPYCAWDGQACSRYTASSKRRSRRQDVRHGNPIRQCRGFNSNANKNAVESVQYGVAGSAAFLECQPRSPQATVKWLFQRDPGDRRREIRAEDRFLRTEQGLLLRALQLSDRGLYSCTATENNFKHVVTRVQLHVLGRDAVHAALFPPLSMSAPPPPGAGPPTPPYQELAQLLAQPEVGLIHQYCQGYWRHVPPSPREAPGAPRSPEPQDQKKPRNRRHHPPDT
modifications: His-Myc tag
notes: Human recombinant full-length His-Myc-tagged SEMA3F, secreted by transfected 293T cells and purified; class 3 semaphorin, NRP-2 ligand
- PI-3K activity ([1]; U87MG, Jurkat and HUVEC, SEMA3F 200, 600, 1800 ng/ml, 15 or 30 minutes): inhibited PI-3K activity
- VEGF-induced PI-3K activation ([1]; endothelial cells (HUVEC) pre-treated with SEMA3F 1800 ng/ml for 30 minutes, then VEGF-A 25 ng/ml): inhibited subsequent VEGF-induced PI-3K activation
- association between mTOR and raptor / rictor [2]: inhibited the association between mTOR and both raptor and rictor
- mTOR/rictor interaction in 2DAkt transfected cells [2]: inhibited mTOR/rictor interaction
- pAkt expression following siRNA knockdown of PTEN [3]: failed to inhibit pAkt expression
